The test concerns the target PDL1 on MDA MB-231 human breast cancer cells (human) (UniProt Q9NZQ7). Nature of the test: flow cytometry on MDA MB-231 cells, anti-human IgG Fc secondary antibody. (In flow cytometry, cells or beads pass a laser one at a time.)

This note sets out measurements from patent CN118076384A.

Chain of UniProt Q9NZQ7 (Q9NZQ7 19-290): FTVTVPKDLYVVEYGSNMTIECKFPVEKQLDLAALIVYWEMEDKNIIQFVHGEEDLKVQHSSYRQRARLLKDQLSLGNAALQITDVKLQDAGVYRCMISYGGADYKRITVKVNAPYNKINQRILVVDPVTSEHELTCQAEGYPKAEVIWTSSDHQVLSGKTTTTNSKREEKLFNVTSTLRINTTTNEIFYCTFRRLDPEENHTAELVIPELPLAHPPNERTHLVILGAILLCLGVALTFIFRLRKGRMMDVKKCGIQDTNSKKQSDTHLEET

Turning to 德瓦鲁单抗(durvalumab) (antibody), the Kd (commonly the constant that tells how readily two partners part at equilibrium) was 167 pM.
